Ki, specific inhibitor activity (inhibition of trypsin activity) and specific inhibitor activity (inhibition of α-chymotrypsin activity) data for 1 substance are collected here from article PMC3225930.

In test [1] the target is α-chymotrypsin. As to the kind of experiment: enzyme inhibition kinetics (reciprocal plots); α-chymotrypsin with substrate N-benzoyl-tyrosine ethyl ester (BTEE, 0-2 mM), 50 mM Tris-HCl pH 7.8, 25 °C; read at 253 nm; Spi1C at 0, 22.7, 45.4 and 68.1 nmol/L in the Lineweaver-Burk plots.
Test [2] concerns the target trypsin.
In test [3] the target is α-chymotrypsin.
Test [4] deals with trypsin. As to the kind of experiment: enzyme inhibition kinetics (reciprocal plots); trypsin with substrate H-D-Phe-Pip-Arg-pNA (S-2238, 0-2 mM), 50 mM Tris-HCl pH 7.8, 25 °C; Spi1C pre-incubated with the enzyme for 15 min; pNA read at 405 nm; Spi1C at 0, 22.7, 45.4 and 68.1 nmol/L in the Lineweaver-Burk plots.

In general, Ki refers to the equilibrium dissociation constant of an inhibitor or competing ligand from its target. Read a low Ki as tighter binding. Regarding “recombinant Spi1C protein (natural protein)”, the inhibition constant (Ki) was found to be 17.9 nM with α-chymotrypsin [1] and 15.2 nM with trypsin [4]. Also, the specific inhibitor activity (inhibition of trypsin activity) with trypsin [2] was 6940 U/mg. Also, the specific inhibitor activity (inhibition of α-chymotrypsin activity) with α-chymotrypsin [3] came to 3640 U/mg.
